Reference: US20260055186A1

Target: human CD8 on human T cells (human) (UniProt P01732)
Test: cell-based or functional assay

Chain of human CD8 on human T cells (human) (P01732 22-235): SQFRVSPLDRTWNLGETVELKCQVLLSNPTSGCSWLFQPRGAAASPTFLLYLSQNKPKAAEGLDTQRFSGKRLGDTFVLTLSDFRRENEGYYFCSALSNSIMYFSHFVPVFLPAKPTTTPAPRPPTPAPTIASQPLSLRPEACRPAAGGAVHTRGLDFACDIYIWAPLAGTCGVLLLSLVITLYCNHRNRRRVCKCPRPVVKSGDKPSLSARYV

| Substance | tumor cell survival, SK-MEL-5 with MART-1 T cells [fold] |
| --- | --- |
| 51.1 (antibody) | 2 |
| SK1 (antibody) | 2 |
